Test results reported in patent US20160002331A1.

Experiments:
Assay in all cases: cell-based or functional assay
[1] = molecular target: Notch1 receptor with L1594P mutation (ALL-SIL cells), P46531
[2] = molecular target: Notch1 receptor with L1594P/D1610V mutations (DND-41 cells), P46531
[3] = molecular target: Notch1 receptor with L1601P mutation (MOLT-4 cells), P46531
[4] = molecular target: Notch1 receptor with a 17 amino acid insertion at position 1740 (Jurkat cells), P46531
Notch1 receptor with a 17 amino acid insertion at position 1740 (Jurkat cells), P46531, sequence (P46531 19-2555): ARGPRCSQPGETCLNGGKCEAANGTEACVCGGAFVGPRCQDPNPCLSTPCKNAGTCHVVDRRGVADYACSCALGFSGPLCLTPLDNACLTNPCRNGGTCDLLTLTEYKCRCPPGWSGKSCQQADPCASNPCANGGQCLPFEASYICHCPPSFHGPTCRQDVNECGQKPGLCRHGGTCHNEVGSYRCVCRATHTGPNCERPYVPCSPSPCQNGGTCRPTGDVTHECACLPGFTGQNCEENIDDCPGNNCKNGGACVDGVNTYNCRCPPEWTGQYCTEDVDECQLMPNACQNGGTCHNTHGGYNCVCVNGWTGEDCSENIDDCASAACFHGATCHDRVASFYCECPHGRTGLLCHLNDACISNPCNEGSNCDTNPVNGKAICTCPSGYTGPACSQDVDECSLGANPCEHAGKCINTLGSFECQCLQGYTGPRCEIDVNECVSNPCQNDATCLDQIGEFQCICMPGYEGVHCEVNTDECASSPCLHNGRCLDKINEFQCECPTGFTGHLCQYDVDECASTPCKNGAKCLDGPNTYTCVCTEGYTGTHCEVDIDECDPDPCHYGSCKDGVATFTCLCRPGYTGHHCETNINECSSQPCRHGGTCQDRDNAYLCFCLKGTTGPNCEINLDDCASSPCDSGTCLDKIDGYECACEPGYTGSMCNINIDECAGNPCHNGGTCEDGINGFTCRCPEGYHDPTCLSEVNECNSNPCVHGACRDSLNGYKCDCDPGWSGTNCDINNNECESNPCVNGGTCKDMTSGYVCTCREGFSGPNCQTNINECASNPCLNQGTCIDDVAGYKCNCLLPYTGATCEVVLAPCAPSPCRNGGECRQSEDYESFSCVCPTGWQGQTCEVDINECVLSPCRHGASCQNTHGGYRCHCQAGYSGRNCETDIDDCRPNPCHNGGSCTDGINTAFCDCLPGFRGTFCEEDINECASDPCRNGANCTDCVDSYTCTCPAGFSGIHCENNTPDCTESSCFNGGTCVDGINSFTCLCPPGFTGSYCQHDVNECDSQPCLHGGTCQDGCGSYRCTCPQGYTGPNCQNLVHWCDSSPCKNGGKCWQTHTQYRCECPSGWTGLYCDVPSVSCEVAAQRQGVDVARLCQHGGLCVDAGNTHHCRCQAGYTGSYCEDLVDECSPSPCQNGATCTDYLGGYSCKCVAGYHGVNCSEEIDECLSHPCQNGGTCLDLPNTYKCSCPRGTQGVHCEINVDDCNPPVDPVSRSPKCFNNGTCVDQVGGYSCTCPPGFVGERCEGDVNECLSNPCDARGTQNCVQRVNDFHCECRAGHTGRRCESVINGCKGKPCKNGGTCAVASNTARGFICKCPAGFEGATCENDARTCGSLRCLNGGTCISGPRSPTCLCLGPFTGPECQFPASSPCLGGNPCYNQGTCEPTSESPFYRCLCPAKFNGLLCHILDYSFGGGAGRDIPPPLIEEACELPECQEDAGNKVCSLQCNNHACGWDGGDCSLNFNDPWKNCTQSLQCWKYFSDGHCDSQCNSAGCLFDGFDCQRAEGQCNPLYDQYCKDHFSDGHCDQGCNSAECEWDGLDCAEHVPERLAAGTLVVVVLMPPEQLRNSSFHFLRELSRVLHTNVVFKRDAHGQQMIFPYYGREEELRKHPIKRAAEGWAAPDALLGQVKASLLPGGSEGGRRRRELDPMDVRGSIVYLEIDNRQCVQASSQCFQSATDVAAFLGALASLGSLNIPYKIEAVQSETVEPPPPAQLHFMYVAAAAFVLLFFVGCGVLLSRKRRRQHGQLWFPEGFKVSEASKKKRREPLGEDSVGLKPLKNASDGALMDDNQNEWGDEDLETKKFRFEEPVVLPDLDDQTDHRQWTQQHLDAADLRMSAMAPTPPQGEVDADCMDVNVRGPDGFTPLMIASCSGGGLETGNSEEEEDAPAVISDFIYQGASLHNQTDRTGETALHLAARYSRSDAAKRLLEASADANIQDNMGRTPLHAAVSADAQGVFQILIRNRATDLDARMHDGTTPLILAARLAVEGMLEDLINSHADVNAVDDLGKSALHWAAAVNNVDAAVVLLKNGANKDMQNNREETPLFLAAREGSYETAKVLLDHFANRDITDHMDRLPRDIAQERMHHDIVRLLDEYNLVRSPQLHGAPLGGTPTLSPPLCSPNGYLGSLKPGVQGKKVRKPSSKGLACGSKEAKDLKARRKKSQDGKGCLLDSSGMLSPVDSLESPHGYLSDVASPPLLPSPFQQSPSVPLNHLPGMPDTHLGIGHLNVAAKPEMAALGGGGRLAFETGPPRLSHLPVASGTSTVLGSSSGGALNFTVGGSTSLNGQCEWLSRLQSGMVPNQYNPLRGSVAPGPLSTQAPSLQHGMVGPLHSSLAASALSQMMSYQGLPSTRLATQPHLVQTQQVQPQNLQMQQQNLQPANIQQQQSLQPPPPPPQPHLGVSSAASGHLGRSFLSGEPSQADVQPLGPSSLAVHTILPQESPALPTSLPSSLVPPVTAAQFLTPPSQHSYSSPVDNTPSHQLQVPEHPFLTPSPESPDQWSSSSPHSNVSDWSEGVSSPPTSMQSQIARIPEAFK

Notch1 receptor with L1594P mutation (ALL-SIL cells), P46531, sequence (P46531 19-2555, stated change not applied): as the sequence (P46531 19-2555) above
Notch1 receptor with L1594P/D1610V mutations (DND-41 cells), P46531, sequence (P46531 19-2555, stated change not applied): as the sequence (P46531 19-2555) above
Notch1 receptor with L1601P mutation (MOLT-4 cells), P46531, sequence (P46531 19-2555, stated change not applied): as the sequence (P46531 19-2555) above

B1: rat 351-mIgG1 (antibody, V domains shown)
VH: EVQLVESGGGLVQPGRSLKVSCLASGFTFSHYGMNWIRQAPGKGLDWVASISRSGSYIRYVDTVKGRFTVSRDIAKNTLYLQMTSLRSEDTALYYCAREGQFGDYFEYWGQGVMVTVSS
VL: DIMLTQSPATLSVTPGERISLSCRASQKISTNLHWYQQKPNESPRILIKYASQTISGIPSRFSGSGSGTDFTLHINTVEPEDFSVYYCQQTNSWPLTFGSGTKLEIK
Normalized Notch1^ICD level, ALL-SIL cells, 0.001 µg/ml antibody (relative to untreated) [1]: 0.982 | Normalized Notch1^ICD level, ALL-SIL cells, 0.01 µg/ml antibody (relative to untreated) [1]: 0.712 | Normalized Notch1^ICD level, ALL-SIL cells, 0.1 µg/ml antibody (relative to untreated) [1]: 0.08 | Normalized Notch1^ICD level, ALL-SIL cells, 1 µg/ml antibody (relative to untreated) [1]: 0.03 | Normalized Notch1^ICD level, ALL-SIL cells, 10 µg/ml antibody (relative to untreated) [1]: 0.019 | Normalized Notch1^ICD level, DND-41 cells, 0.001 µg/ml antibody (relative to untreated) [2]: 1.02 | Normalized Notch1^ICD level, DND-41 cells, 0.01 µg/ml antibody (relative to untreated) [2]: 0.988 | Normalized Notch1^ICD level, DND-41 cells, 0.1 µg/ml antibody (relative to untreated) [2]: 0.367 | Normalized Notch1^ICD level, DND-41 cells, 1 µg/ml antibody (relative to untreated) [2]: 0.322 | Normalized Notch1^ICD level, DND-41 cells, 10 µg/ml antibody (relative to untreated) [2]: 0.219 | Normalized Notch1^ICD level, MOLT-4 cells, 0.01 µg/ml antibody (relative to untreated) [3]: 1.52 | Normalized Notch1^ICD level, MOLT-4 cells, 0.1 µg/ml antibody (relative to untreated) [3]: 0.751 | Normalized Notch1^ICD level, MOLT-4 cells, 1 µg/ml antibody (relative to untreated) [3]: 0.284 | Normalized Notch1^ICD level, MOLT-4 cells, 10 µg/ml antibody (relative to untreated) [3]: 0.082 | Normalized Notch1^ICD level, Jurkat cells, 0.001 µg/ml antibody (relative to untreated) [4]: 1.53 | Normalized Notch1^ICD level, Jurkat cells, 0.01 µg/ml antibody (relative to untreated) [4]: 1.44 | Normalized Notch1^ICD level, Jurkat cells, 0.1 µg/ml antibody (relative to untreated) [4]: 1.41 | Normalized Notch1^ICD level, Jurkat cells, 1 µg/ml antibody (relative to untreated) [4]: 1.08 | Normalized Notch1^ICD level, Jurkat cells, 10 µg/ml antibody (relative to untreated) [4]: 1.2
